In US20040180811A1 (NEW ENGLAND MEDICAL CENTER HOSPITAL, published 2004):

How the values were obtained:
[1] = molecular target: T1, GFP-MBSLZM (full-length GFP-MBS with the C-terminal domain of GST-MBSLZmutant) (human, UniProt O14974 1-1030); assay: GST pull-down from lysate of transfected COS1 cells, anti-MBS immunoblot
T1 construct: also called GFP-MBSLZ mutant; not shown: GFP of the pEGFP vector
T1 sequence (looked up): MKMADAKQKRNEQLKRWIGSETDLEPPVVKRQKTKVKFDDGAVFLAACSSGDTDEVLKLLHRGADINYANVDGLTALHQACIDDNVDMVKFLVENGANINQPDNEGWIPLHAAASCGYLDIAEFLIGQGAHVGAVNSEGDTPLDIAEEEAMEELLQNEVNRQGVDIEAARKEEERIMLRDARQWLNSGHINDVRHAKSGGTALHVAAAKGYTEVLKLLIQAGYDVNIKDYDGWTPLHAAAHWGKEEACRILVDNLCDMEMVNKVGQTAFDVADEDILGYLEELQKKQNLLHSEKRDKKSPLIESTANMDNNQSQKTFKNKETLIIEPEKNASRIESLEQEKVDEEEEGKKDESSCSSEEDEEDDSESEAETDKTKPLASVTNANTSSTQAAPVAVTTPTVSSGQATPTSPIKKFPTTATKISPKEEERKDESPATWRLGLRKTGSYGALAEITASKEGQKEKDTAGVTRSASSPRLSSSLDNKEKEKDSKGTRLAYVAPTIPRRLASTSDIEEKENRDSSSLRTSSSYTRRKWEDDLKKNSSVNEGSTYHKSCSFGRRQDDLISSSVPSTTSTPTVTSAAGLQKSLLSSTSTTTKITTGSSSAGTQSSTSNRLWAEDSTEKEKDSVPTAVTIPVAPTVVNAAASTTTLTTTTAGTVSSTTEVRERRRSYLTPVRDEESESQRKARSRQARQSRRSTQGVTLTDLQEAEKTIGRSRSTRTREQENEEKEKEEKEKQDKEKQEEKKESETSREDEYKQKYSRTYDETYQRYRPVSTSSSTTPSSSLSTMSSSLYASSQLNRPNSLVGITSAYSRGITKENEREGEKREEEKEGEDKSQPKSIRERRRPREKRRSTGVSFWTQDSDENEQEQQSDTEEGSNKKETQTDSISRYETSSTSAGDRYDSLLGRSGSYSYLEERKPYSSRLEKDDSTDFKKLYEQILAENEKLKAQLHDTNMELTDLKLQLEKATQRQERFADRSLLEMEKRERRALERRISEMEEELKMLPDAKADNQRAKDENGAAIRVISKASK

[2] = molecular target: T2, Myosin binding subunit (MBS) of myosin phosphatase, endogenous in human vascular smooth muscle cells (human, UniProt O14974 1-1030, limits assumed); assay: GST pull-down from vascular smooth muscle cell lysate, anti-MBS immunoblot
T2 construct: In lysate it stands in the myosin phosphatase complex with PP1 and the 20 kD subunit; also called MYPT1
T2 sequence (looked up): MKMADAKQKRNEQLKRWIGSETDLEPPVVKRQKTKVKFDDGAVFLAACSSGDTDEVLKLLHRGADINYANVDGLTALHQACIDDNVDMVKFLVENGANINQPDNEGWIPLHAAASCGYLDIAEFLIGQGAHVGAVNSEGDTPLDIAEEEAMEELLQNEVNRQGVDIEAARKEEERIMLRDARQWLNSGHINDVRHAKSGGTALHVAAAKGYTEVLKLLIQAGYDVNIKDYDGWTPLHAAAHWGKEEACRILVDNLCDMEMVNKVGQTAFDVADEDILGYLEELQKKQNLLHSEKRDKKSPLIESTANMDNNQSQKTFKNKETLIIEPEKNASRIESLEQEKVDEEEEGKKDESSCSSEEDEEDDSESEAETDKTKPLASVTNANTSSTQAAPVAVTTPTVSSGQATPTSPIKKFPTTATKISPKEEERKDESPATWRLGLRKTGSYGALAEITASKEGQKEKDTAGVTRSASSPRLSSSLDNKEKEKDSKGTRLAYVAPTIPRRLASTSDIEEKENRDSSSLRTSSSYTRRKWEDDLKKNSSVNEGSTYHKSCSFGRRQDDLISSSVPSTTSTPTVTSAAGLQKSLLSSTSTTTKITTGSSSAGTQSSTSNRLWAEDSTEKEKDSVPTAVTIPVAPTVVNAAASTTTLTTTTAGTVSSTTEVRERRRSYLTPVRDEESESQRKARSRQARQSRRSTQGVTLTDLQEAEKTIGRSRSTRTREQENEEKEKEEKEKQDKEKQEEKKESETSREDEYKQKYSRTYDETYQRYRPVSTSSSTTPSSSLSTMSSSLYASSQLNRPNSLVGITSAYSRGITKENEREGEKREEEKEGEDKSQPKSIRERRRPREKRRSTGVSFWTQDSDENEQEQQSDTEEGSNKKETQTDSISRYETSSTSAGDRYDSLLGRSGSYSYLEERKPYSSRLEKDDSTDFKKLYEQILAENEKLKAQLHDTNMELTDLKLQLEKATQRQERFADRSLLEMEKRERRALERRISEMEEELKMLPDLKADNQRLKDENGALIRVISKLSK
Source text: Also shown is the same M-RIP domains expressed in COS1 cells as Flag-tagged proteins and immunoprecipitated with M2 antibody. The MBS immunoblot of the immunopellets is shown in the middle panel and the total cellular MBS content from each lysate used for immunoprecipitation is shown in the lower panel. Molecular weight size markers in kD are shown on the right.
Identical results were obtained in heterologous expression studies with epitope-tagged constructs for various M-RIP domains expressed in COS1 cells (FIG. 4B).
(§1) For fusion protein interactions with proteins from cell lysates, confluent cells were rinsed twice with ice cold PBS, lysed in buffer A, incubated for 1 hour at room temperature, then centrifuged at 14,000 rpm for 20 minutes at 40C. The supernatant was mixed with GST-fusion proteins prebound to glutathione agarose beads. After overnight incubation at 40C, the beads were washed with buffer C, eluted with SDS sample buffer and bound proteins were analyzed by immunoblotting. For fusion protein interactions with purified proteins, fusion proteins immobilized on beads were incubated in buffer A for one hour with purified soluble protein previously eluted from beads. After incubation, the beads were washed three times with buffer C, bound proteins were eluted in SDS sample buffer and analyzed by immunoblotting with anti-GST antibodies.

[3] = molecular target: T3, MBS-Cterm-pGBT9 (human MBS base pairs 2043-3090 fused to the Gal4 DNA binding domain) (human, UniProt P04386 1-147; O14974 682-1030); assay: yeast two-hybrid
T3 construct: Bait of the yeast 2-hybrid screen
Source text: Human MBS-Cterm, base pairs 2043-3090 (kind gift of Dr. Masaaki Ito) was cloned into the EcoR1 site of yeast 2-hybrid vectors pGBT9 and pGAD424, expressing MBS fusion proteins with Gal4 DNA binding domain and DNA activating domain, respectively. Expression of MBS-Cterm in yeast was confirmed by dimerization when MBS-Cterm-pGBT9 and MBS-Cterm-pGAD424 were coexpressed in yeast (data not shown). Yeast strain Y190 was sequentially transformed with MBSCterm- pGBT9 and a human aorta cDNA library (Clontech) using the lithium acetate method. Interactions were identified by growth on selective media, and confirmed by colony lift filter β-galactosidase assay. The cDNA library plasmid was extracted from confirmed positive yeast colonies, and sequenced at the Tufts Core Sequencing Facility.

[4] = molecular target: T4, GST-MBSLZ (amino acids 847-1030 of MBS, includes the leucine zipper domain) (human, UniProt O14974 847-1030); assay: purified protein interaction, His fusions on Ni-NTA beads, anti-GST immunoblot
T4 construct: range 847-1030; also called wild type C terminal MBS; not shown: glutathione S-transferase (GST) tag
T4 sequence (looked up): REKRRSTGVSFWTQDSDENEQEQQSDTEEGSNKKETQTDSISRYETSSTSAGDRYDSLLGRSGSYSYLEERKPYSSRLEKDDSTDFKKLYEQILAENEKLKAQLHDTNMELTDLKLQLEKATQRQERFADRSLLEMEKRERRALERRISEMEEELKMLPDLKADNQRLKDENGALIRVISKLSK
Experimental: FIG. 4F show a series of immunoblots representing a purified protein interaction assay in which similar quantities of 6×his CC1, CC2, and CC3 bound to Ni-NTA beads were incubated with purified soluble GST-MBSLZ or GST-MBSLZ mutant. Bound GST-MBSLZ and GST-MBSLZ mutant were detected using anti-GST antibodies.
as §1

B1: GST-M-RIP545-878 (RhoA-binding domain plus the remaining carboxy-terminus of CC2) (other)
chain: AEFRPIQQALAQERVGGVGPADTHEPLRPEAESGELERERARRREERRKRFGMLDATDGPGTEDAALRMEVDRSPGLPMSDLKTHNVHVEIEQRWHQVETTPLREEKQVPIAPVHLSSEDGGDRLSTHELTSLLEKELEQSQKEASDLLEQNRLLQDQLRVALGREQSAREGYVLQATCERGFAAMEETHQKKIEDLQRQHQRELEKLREEKDRLLAEETAATISAIEAMKNAHREEMERELEKSQRSQISSVNSDVEALRRQYLEELQSVQRELEVLSEQYSQKCLENAHLAQALEAERQALRQCQRENQELNAHNQELNNRLAAEITRLRTL
notes: not shown: glutathione S-transferase (GST) tag of the pGEX vector
B1: no binding [1].

B2: GST-M-RIP545-823 (M-RIP RhoA-binding domain) (other)
chain: AEFRPIQQALAQERVGGVGPADTHEPLRPEAESGELERERARRREERRKRFGMLDATDGPGTEDAALRMEVDRSPGLPMSDLKTHNVHVEIEQRWHQVETTPLREEKQVPIAPVHLSSEDGGDRLSTHELTSLLEKELEQSQKEASDLLEQNRLLQDQLRVALGREQSAREGYVLQATCERGFAAMEETHQKKIEDLQRQHQRELEKLREEKDRLLAEETAATISAIEAMKNAHREEMERELEKSQRSQISSVNSDVEALRRQYLEELQSVQRELEVLS
notes: as for B1
B2: no binding [2].

B3: MBS-Cterm-pGAD424 (human MBS base pairs 2043-3090 fused to the Gal4 DNA activating domain) (other, UniProt O14974 682-1030, looked up, not shown: large carriers)
chain: RKARSRQARQSRRSTQGVTLTDLQEAEKTIGRSRSTRTREQENEEKEKEEKEKQDKEKQEEKKESETSREDEYKQKYSRTYDETYQRYRPVSTSSSTTPSSSLSTMSSSLYASSQLNRPNSLVGITSAYSRGITKENEREGEKREEEKEGEDKSQPKSIRERRRPREKRRSTGVSFWTQDSDENEQEQQSDTEEGSNKKETQTDSISRYETSSTSAGDRYDSLLGRSGSYSYLEERKPYSSRLEKDDSTDFKKLYEQILAENEKLKAQLHDTNMELTDLKLQLEKATQRQERFADRSLLEMEKRERRALERRISEMEEELKMLPDLKADNQRLKDENGALIRVISKLSK
notes: domain: MBS-Cterm (base pairs 2043-3090)
B3: binds [3].

B4: 6×his CC2 (polyhistidine fusion of M-RIP coiled-coil domain 2) (other)
chain: AAMEETHQKKIEDLQRQHQRELEKLREEKDRLLAEETAATISAIEAMKNAHREEMERELEKSQRSQISSVNSDVEALRRQYLEELQSVQRELEVLSEQYSQKCLENAHLAQALEAERQALRQCQRENQELNAHNQELNNRLAAEITRLRTL
notes: not shown: polyhistidine (6xhis) tag of the pQE vector
B4: binds [4].
